From US9074002B2, “PTP1B inhibitors” (Cold Spring Harbor Laboratory, priority 2009, dated 2015)

Biological target: T1, PTP1B (reduced, active) (Homo sapiens, UniProt P18031)
T1 construct: made in house; host or cells: E. coli BL21 (pET19b)
T1 sequence (P18031 3-277 limits assumed): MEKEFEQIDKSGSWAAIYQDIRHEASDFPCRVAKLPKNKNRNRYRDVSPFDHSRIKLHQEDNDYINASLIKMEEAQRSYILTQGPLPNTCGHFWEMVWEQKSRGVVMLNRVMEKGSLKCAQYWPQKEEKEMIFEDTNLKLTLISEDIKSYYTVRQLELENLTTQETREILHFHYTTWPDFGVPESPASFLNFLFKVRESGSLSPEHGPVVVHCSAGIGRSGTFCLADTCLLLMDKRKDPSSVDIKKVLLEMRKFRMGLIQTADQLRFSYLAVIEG
Assay: Direct effect of scFvs/antibodies on PTP1B phosphatase activity (32P-pTyr-RCML substrate)
Format: biochemical
Settings: 32P-labeled pTyr-RCML substrate, FIG. 1
Experimental: Applicant's hypothesis was that scFvs that are able to bind to and stabilize the oxidized conformation of PTP1B in solution would inhibit reactivation by reducing agent, but have no direct inhibitory effect on phosphatase activity in assays in vitro. Activity was measured using ^32P-labeled pTyr-Reduced Carboxamidomethylated and Maleylated Lysozyme as substrate. Applicant established conditions in which wild type PTP1B could be reversibly oxidized in vitro. PTP1B was inactivated following addition of H2O2. […] Applicant validated this approach further, by testing the effects of expressing one of the scFvs (scFv45) as a single chain antibody fragment “intrabody” to PTP1B, using 293T cells as the expression system. This intrabody was expressed transiently and then tested for effects on insulin signaling, focusing initially on the tyrosine phosphorylation status of the beta-subunit of the insulin receptor and insulin receptor substrate (IRS-1).
Reduced carboxamidomethylated and maleylated lysozyme (RCML) was labeled with ^32P using recombinant GST-FER kinase to stoichiometries up to 0.8 (mol ^32P incorporated/mol of protein). This ^32P-Labeled phospho-tyrosyl RCML was used as the substrate in the in-solution phosphatase assay for screening the conformation sensor scFvs. Recombinant PTP1B was reversibly oxidized and transiently inactivated with H2O2 (5× molar excess of the protein). […] Purified bacterially expressed scFvs (100× molar excess of PTP1B) were incubated with PTP after H2O2 treatment and its removal and the effect of individual scFv on stabilizing the reversibly oxidized conformation was assessed by the phosphatase assay under reducing condition.
In order to screen the isolated scFvs for those that inhibit reactivation of PTP1B-OX by reducing agent, but have no direct inhibitory effect on phosphatase activity in assays in vitro, the effect of six scFvs (scFv20, scFv34, scFv45, scFv57, scFv64 and scFv106) on PTP1B activity was determined. PTP1B activity was measured using 32P-labeled pTyr-Reduced Carboxamidomethylated and Maleylated Lysozyme as substrate (FIGS. 1 and 2). Addition of the reducing agent TCEP alone had no substantial effect in PTP1B activity was assessed.

B1: scFv57: scFv binding PTP1B-OX, SEQ ID NO: 27 and 90 (protein)
scFv: MKKTAIAIAVALAGFATVAQAALTQPSSVSANPGAFNKITCSGSSSAYGYGWNQQKSPGSAPVTVIYNNNKRPSNIPSRFSGSKSGSTGTLTITGDQDEDEDFYFCGSEYSSTDAIFGAGTTLTVLGQSSRSSTVTLDESGGGLQAPGGALSLVCKASGFTFSSYDMGWIPQAPGKGLEYVAGITDNGIYASYGSAVDGRATISRDNRQSSVKLQLNNLKADDTGTYYCARDDGSGWTGNSIDAWGHGTEVIVSSTSGQAGQHHHHHHGAYPYDVPDYAS
- direct effect on PTP1B activity: no direct inhibition of PTP activity

B2: scFv45: conformation-sensor scFv binding PTP1B-OX, SEQ ID NO: 26 and 78; expressed as intrabody (protein)
scFv: MKKTAIAIAVALAGFATVAQAALTQPSSVSANPGGTVKITCSGSSSAYGYGWYQQKSPGSAPVTVIYNNNKRPSNIPSRFSGSKSGSTGTLTITGVQAEDEAVYFCGSEDSSTDAIFGAGTTLTVLGQSSRSSTVTLDESGGGLQAPGGALSLVCKASGFTFSSYDMGWIRQAPGKGLEYVAGITDNGRYASYGSAVDGRATISRDNGQSSVRLQLNNLRAEDTGTYYCARDDGSGWTGNSIDAWGHGTEVIVSSTSGQAGQHHHHHHGAYPYDVPDYAS
- direct effect on PTP1B activity: no direct inhibition of PTP activity
